Target: KRAS G12V (whole mutated KRAS gene linked to the LAMP3 signal peptide, as mRNA) peptide on (human)
Experiment: B13.1 TILs stimulated with APCs loaded with KRAS G12V mRNA, sorted PI- CD3+ CD137+, 10x single-cell V(D)J sequencing; ex vivo sorted cells
Conditions: chains alpha TRAV23/DV6*01 TRAJ58*01 CDR3:beta TRBV5-6*01 TRBJ2-7*01 CDR3

B1: B13.1.2 (peptide)
chain 1: CAASEETSGSRLTF
chain 2: CASSWNLQASYEQYF
- clonotype frequency among the sorted CD3+ CD137+ cells: 32.8%

From publication PMC10243368
